{"source": "paper PMC5861432", "key": {"[1]": {"target": "T1, IRF3(6D) (human, UniProt Q14653 1-427, S386D;S396D;S398D;S402D;T404D;S405D)", "T1 sequence": "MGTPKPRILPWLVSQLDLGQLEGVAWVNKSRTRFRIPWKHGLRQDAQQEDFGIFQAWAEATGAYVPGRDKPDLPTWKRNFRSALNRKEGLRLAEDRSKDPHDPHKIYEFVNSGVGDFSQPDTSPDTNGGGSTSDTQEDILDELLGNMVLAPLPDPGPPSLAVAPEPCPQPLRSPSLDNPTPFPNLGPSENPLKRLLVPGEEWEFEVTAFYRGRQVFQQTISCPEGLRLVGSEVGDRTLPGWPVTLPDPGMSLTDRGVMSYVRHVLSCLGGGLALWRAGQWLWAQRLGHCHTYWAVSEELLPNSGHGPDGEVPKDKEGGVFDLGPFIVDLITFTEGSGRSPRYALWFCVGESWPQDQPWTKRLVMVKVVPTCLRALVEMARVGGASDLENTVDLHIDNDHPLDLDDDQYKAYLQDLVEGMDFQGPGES", "assay": "EMSA"}, "[2]": {"target": "IRF5(4D) (human, UniProt Q13568-2 1-514, S451D;S453D;S456D;S462D)", "assay": "PBM"}, "[3]": {"target": "T1, IRF3(6D)", "assay": "PBM"}}}
{"binder": "proximal dimer (2-bp spacer) (dsDNA) DNA 1: GCACCGCTAACCGAAACCGAAACTGTGC DNA 2: GCACAGTTTCGGTTTCGGTTAGCGGTGC", "values": [{"measurement": "binding result", "setting": "[1]", "value": "binds"}]}
{"binder": "C-2 PBM probe (dsDNA) DNA 1: GCCTAGCACTAACCGAAACCGAAACCTAAGTGCTAGGTCTTGATTCGCTTGACGCTGCTG DNA 2: CAGCAGCGTCAAGCGAATCAAGACCTAGCACTTAGGTTTCGGTTTCGGTTAGTGCTAGGC", "values": [{"measurement": "binding result", "setting": "[2]", "value": "binds"}, {"measurement": "binding result", "setting": "[3]", "value": "binds"}]}
